Data on one molecule can be found in article PMC6405639.

The experiment addresses 5(6)-TAMRA-Ahx(5-24)NPY (porcine). Put plainly: fluorescence polarisation; homogenous binding assay; 5 nM 5(6)-TAMRA-Ahx(5-24)NPY with increasing concentrations of affinity purified Y2R_cysteine_deficient in Brij-58 micelles in binding buffer, 60 min, room temperature; fall of fluorescence in the S-plane; the paper says that the EC50 constitutes the Kd. (In general: In fluorescence polarisation assays a small probe gives low polarisation when free and higher when bound to something large.)

B1: Y2R_cysteine_deficient with C-terminal deca-histidine-tag (cell-free expressed) (receptor)
chain: MGPIGAEADENQTVEEMKVEQYGPQTTPRGELVPDPEPELIDSTKLIEVQVVLILAYASIILLGVIGNSLVIHVVIKFKSMRTVTNFFIANLAVADLLVNTLSLPFTLTYTLMGEWKMGPVLCHLVPYAQGLAVQVSTITLTVIALDRHRSIVYHLESKISKRISFLIIGLAWGISALLASPLAIFREYSLIEIIPDFEIVACTEKWPGEEKSIYGTVYSLSSLLILYVLPLGIISFSYTRIWSKLKNHVSPGAANDHYHQRRQKTTKMLVAVVVVFAVSWLPLHAFQLAVDIDSQVLDLKEYKLIFTVFHIIAMASTFANPLLYGWMNSNYRKAFLSAFRAEQRLDAIHSEVSVTFKAKKNLEVRKNSGPNDSFTEATNV
By EC50 is commonly meant the concentration needed to bring the measured effect to its halfway point. A high value points to a need for much substance. On to B1, for which the EC50 worked out at 49 nM.
